Source: the Immune Epitope Database (IEDB)
pIC50, pKd: −log10 of the molar value.

Legend:
HLA-A*02:17 = assay: IEDB peptide-MHC binding, purified MHC/competitive/radioactivity; filed as Kd, often an IC50 or EC50 that approximates it; ≥ and ≤ were set here for values at or beyond the usual limits of such assays
HLA-A*02:06 = assay: as above
HLA-A*68:02 = assay: as above
HLA-A*02:01 [1] = assay: as above
HLA-A*11:01 [2] = assay: IEDB peptide-MHC binding, purified MHC/competitive/fluorescence; ≥ and ≤ were set here for values at or beyond the usual limits of such assays
HLA-A*03:01 [3] = assay: IEDB peptide-MHC binding, purified MHC/competitive/fluorescence; filed as Kd, often an IC50 or EC50 that approximates it; ≥ and ≤ were set here for values at or beyond the usual limits of such assays
HLA-A*31:01 = assay: as above
HLA-A*03:01 [4] = assay: IEDB peptide-MHC binding, purified MHC/direct/fluorescence; filed as Kd, often an IC50 or EC50 that approximates it; ≥ and ≤ were set here for values at or beyond the usual limits of such assays
HLA-A*11:01 [5] = assay: as above
HLA-B*08:02 = assay: as above
HLA-A*02:12 = assay: as above; conditions: source organism: dengue virus type 3
HLA-B*08:01 [6] = assay: IEDB peptide-MHC binding, purified MHC/competitive/radioactivity; filed as Kd, often an IC50 or EC50 that approximates it; ≥ and ≤ were set here for values at or beyond the usual limits of such assays
HLA-A*69:01 = assay: IEDB peptide-MHC binding, purified MHC/competitive/fluorescence; filed as Kd, often an IC50 or EC50 that approximates it; ≥ and ≤ were set here for values at or beyond the usual limits of such assays
HLA-B*18:01 = assay: as above
HLA-B*27:03 = assay: as above
HLA-B*39:01 = assay: as above
HLA-B*46:01 = assay: as above
HLA-A*26:01 = assay: as above
HLA-B*51:01 = assay: as above
HLA-B*57:01 = assay: as above
HLA-B*15:17 = assay: as above
HLA-A*02:01 [7] = assay: as above; conditions: source organism: Escherichia coli 536
HLA-A*24:02 = assay: IEDB peptide-MHC binding, purified MHC/competitive/fluorescence; ≥ and ≤ were set here for values at or beyond the usual limits of such assays; conditions: source organism: Sudan ebolavirus
HLA-A*02:01 [8] = assay: as above; conditions: source organism: Sudan ebolavirus
HLA-B*15:09 = assay: IEDB peptide-MHC binding, purified MHC/direct/fluorescence; filed as Kd, often an IC50 or EC50 that approximates it; ≥ and ≤ were set here for values at or beyond the usual limits of such assays; conditions: source organism: Burkholderia mallei ATCC 23344
HLA-A*68:01 = assay: IEDB peptide-MHC binding, purified MHC/competitive/radioactivity; filed as Kd, often an IC50 or EC50 that approximates it; ≥ and ≤ were set here for values at or beyond the usual limits of such assays; conditions: source organism: Dengue virus 2 Jamaica/1409/1983
HLA-A*02:03 = assay: as above
HLA-B*15:42 = assay: IEDB peptide-MHC binding, purified MHC/competitive/fluorescence; filed as Kd, often an IC50 or EC50 that approximates it; ≥ and ≤ were set here for values at or beyond the usual limits of such assays
HLA-B*45:06 = assay: as above
HLA-B*83:01 = assay: as above; conditions: source organism: human gammaherpesvirus 4
HLA-A*02:01 [9] = assay: IEDB peptide-MHC binding, purified MHC/direct/fluorescence; filed as Kd, often an IC50 or EC50 that approximates it; ≥ and ≤ were set here for values at or beyond the usual limits of such assays; conditions: source organism: Tetraodon nigroviridis
HLA-B*15:01 = assay: IEDB peptide-MHC binding, purified MHC/competitive/fluorescence; filed as Kd, often an IC50 or EC50 that approximates it; ≥ and ≤ were set here for values at or beyond the usual limits of such assays; conditions: source organism: Homo sapiens
HLA-B*08:01 [10] = assay: IEDB peptide-MHC binding, purified MHC/direct/fluorescence; filed as Kd, often an IC50 or EC50 that approximates it; ≥ and ≤ were set here for values at or beyond the usual limits of such assays; conditions: source organism: Listeria monocytogenes serotype 4b str. H7858
[11] = source organism: Dengue virus 4 Dominica/814669/1981
[12] = source organism: Influenza A virus (A/Memphis/1/1978(H1N1))
[13] = source organism: Dengue virus 2 Jamaica/1409/1983
[14] = source organism: Coxiella burnetii
[15] = source organism: Dengue virus 3 Martinique/1243/1999
[16] = source organism: Influenza A virus (A/Viet Nam/HN/2004(H5N1))
[17] = source organism: Escherichia coli 536
[18] = source organism: Dengue virus 3 China/80-2/1980
[19] = source organism: Dengue virus 3 Singapore/8120/1995
[20] = source organism: Sudan ebolavirus
[21] = source organism: Dengue virus 1 Singapore/S275/1990
[22] = source organism: Dengue virus 1 Brazil/97-11/1997
[23] = source organism: Dengue virus 4 Philippines/H241/1956
[24] = source organism: Bacillus cereus G9241
[25] = source organism: Dengue virus 3 Sri Lanka/1266/2000
[26] = source organism: human gammaherpesvirus 4
[27] = source organism: Dengue virus 2 Thailand/NGS-C/1944
[28] = source organism: West Nile virus
[29] = source organism: Yersinia pestis
[30] = source organism: Yersinia pestis FV-1

## LSMGLITIAV
HLA-A*02:17; [11]
  pKd: 5.62
HLA-A*02:06; [11]
  pKd: 7.52
HLA-A*68:02; [11]
  pKd: 7.10
HLA-A*02:01 [1]; [11]
  pKd: 7.10

## ISKSMRDQR
HLA-A*11:01 [2]; source organism: Variola virus
  pIC50: 4.63

## RLFKHGLKR
HLA-A*03:01 [3]; [12]
  pKd: 8.10
HLA-A*31:01; [12]
  pKd: 7.84

## AAAWYLWEV
HLA-A*02:17; [13]
  pKd: 5.85
HLA-A*02:06; [13]
  pKd: 8.47

## SQIRRFNLR
HLA-A*03:01 [4]; [14]
  pKd: 5.91
HLA-A*11:01 [5]; [14]
  pKd: 7.87
HLA-A*31:01; source organism: Pseudomonas putida F1
  pKd: 8.99

## TLKRRSWPL
HLA-B*08:02; source organism: dengue virus type 3
  pKd: 7.06
HLA-A*02:12
  pKd: 8.40
HLA-B*08:01 [6]; [15]
  pKd: 8.93

## GTFGPVHFR
HLA-A*03:01 [4]; [16]
  pKd: 7.59
HLA-A*11:01 [5]; [16]
  pKd: 8.80
HLA-A*31:01; source organism: Influenza A virus H3N2
  pKd: ≥ 9.00

## RAMDVYCHR
HLA-A*69:01; [17]
  pKd: ≤ 4.70
HLA-B*18:01; [17]
  pKd: ≤ 4.70
HLA-B*27:03; [17]
  pKd: ≤ 4.70
HLA-B*39:01; [17]
  pKd: ≤ 4.70
HLA-B*46:01; [17]
  pKd: ≤ 4.70
HLA-A*26:01; [17]
  pKd: ≤ 4.70
HLA-B*51:01; [17]
  pKd: ≤ 4.70
HLA-B*57:01; [17]
  pKd: ≤ 4.70
HLA-B*15:17; [17]
  pKd: ≤ 4.70
HLA-A*02:01 [7]
  pKd: ≤ 4.70

## TTPMMIQTR
HLA-A*11:01 [2]; source organism: Vaccinia virus
  pIC50: 4.34

## FVGKTVWFV
HLA-A*02:17; [18]
  pKd: 7.54
HLA-A*02:06; [19]
  pKd: 8.06
HLA-A*68:02; [19]
  pKd: 8.73
HLA-A*02:01 [1]; [18]
  pKd: 8.33

## FGGFSTLDK
HLA-A*11:01 [2]; source organism: Variola virus
  pIC50: ≤ 4.11

## AIDFLLRRW
HLA-A*11:01 [2]; [20]
  pIC50: ≤ 3.81
HLA-A*24:02
  pIC50: 4.41
HLA-A*02:01 [8]
  pIC50: 4.26

## GEELPTVVL
HLA-B*15:09
  pKd: ≤ 4.70

## SATKRWGFR
HLA-A*11:01 [2]; [20]
  pIC50: ≤ 3.93

## MLLMLLPTAL
HLA-A*02:17; [21]
  pKd: 7.11
HLA-A*02:06; [22]
  pKd: 8.27
HLA-A*02:01 [1]; [21]
  pKd: 7.78

## ILGAQALPV
HLA-A*02:17; [23]
  pKd: 5.59
HLA-A*02:01 [1]; [23]
  pKd: 7.49

## TVNPIVTEK
HLA-A*11:01 [5]; source organism: Dengue virus
  pKd: 8.64
HLA-A*31:01; source organism: dengue virus type 2
  pKd: 4.84
HLA-A*68:01
  pKd: 7.58

## MLYDRINLR
HLA-A*03:01 [3]; [24]
  pKd: 7.97
HLA-A*31:01; [24]
  pKd: 8.47

## ALFSGVSWV
HLA-A*02:03; [15]
  pKd: 9.44
HLA-A*02:17; [25]
  pKd: 6.34
HLA-A*02:06; [15]
  pKd: 8.71

## LILGAQALPV
HLA-A*02:17; [23]
  pKd: 6.32
HLA-A*02:06; [23]
  pKd: 7.74
HLA-A*02:01 [1]; [23]
  pKd: 7.26

## SQAAFGLPI
HLA-B*15:42; [26]
  pKd: ≤ 5.30
HLA-B*45:06; [26]
  pKd: 6.22
HLA-B*83:01
  pKd: ≤ 5.30

## FMDPGIFPR
HLA-A*02:01 [9]
  pKd: 8.00
HLA-A*69:01; source organism: Homo sapiens
  pKd: ≤ 4.70
HLA-B*18:01; source organism: Homo sapiens
  pKd: ≤ 4.70
HLA-B*15:01
  pKd: ≤ 4.70
HLA-B*27:03; source organism: Homo sapiens
  pKd: ≤ 4.70
HLA-B*39:01; source organism: Homo sapiens
  pKd: ≤ 4.70
HLA-B*46:01; source organism: Homo sapiens
  pKd: ≤ 4.70
HLA-A*26:01; source organism: Homo sapiens
  pKd: ≤ 4.70
HLA-B*51:01; source organism: Homo sapiens
  pKd: ≤ 4.70
HLA-B*57:01; source organism: Homo sapiens
  pKd: ≤ 4.70
HLA-B*15:17; source organism: Homo sapiens
  pKd: ≤ 4.70

## GMLWMADVPL
HLA-B*08:01 [6]; [19]
  pKd: 5.85
HLA-A*02:17; [18]
  pKd: 7.19
HLA-A*02:01 [1]; [18]
  pKd: 8.31

## LMMTTIGIV
HLA-A*02:03; source organism: Dengue virus 2 Peru/IQT2913/1996
  pKd: 9.05
HLA-A*02:17; [27]
  pKd: 6.74
HLA-A*02:01 [1]; [27]
  pKd: 8.23

## ALFSGVSWVM
HLA-A*02:17; [25]
  pKd: 6.16
HLA-A*02:01 [1]; [25]
  pKd: 8.14

## SIILEFFLMV
HLA-A*02:17; [23]
  pKd: 6.93
HLA-A*02:06; [22]
  pKd: 7.80
HLA-A*02:01 [1]; [23]
  pKd: 8.01

## VLRKRWTAK
HLA-A*11:01 [5]; [28]
  pKd: ≤ 4.70
HLA-A*31:01; [28]
  pKd: 7.23

## HLKRRKEPL
HLA-B*08:01 [10]
  pKd: 7.80
HLA-B*08:02; source organism: Listeria monocytogenes serotype 4b str. H7858
  pKd: 6.34

## SVQWFRLPR
HLA-A*03:01 [4]; [29]
  pKd: 6.24
HLA-A*11:01 [5]; [29]
  pKd: ≥ 9.00
HLA-A*31:01; [30]
  pKd: ≥ 10.00
HLA-B*15:42; [30]
  pKd: ≤ 5.30
HLA-B*45:06; [30]
  pKd: ≤ 5.30

## LVMAFIAFL
HLA-A*02:17; [21]
  pKd: 7.81
HLA-A*02:06; [22]
  pKd: 7.84
HLA-A*68:02; [22]
  pKd: 7.68
HLA-A*02:01 [1]; [21]
  pKd: 7.40

## LQMEDKAWLV
HLA-A*02:17; [13]
  pKd: 6.92
HLA-A*02:06; [13]
  pKd: 8.57
HLA-A*02:01 [1]; [13]
  pKd: 8.44

## LVISGVFPV
HLA-A*02:03; [13]
  pKd: 7.85
HLA-A*02:17; [13]
  pKd: 8.71
HLA-A*02:06; [13]
  pKd: 8.78
HLA-A*68:02; [13]
  pKd: 9.43
HLA-A*02:01 [1]; [13]
  pKd: 7.53
